Test results reported in publication PMC11190292, “Hetero-oligomerization of TDP-43 carboxy-terminal fragments with cellular proteins contributes to proteotoxicity” (Communications Biology, 2024).

Target: the molecule itself
Assay: fluorescence correlation spectroscopy (FCS); soluble supernatant of transfected Neuro2a cell lysate (50 mM Hepes-KOH pH 7.5, 150 mM NaCl, 1% Nonidet P-40); counts per particle (CPP) against GFP monomers as read-out of homo-oligomerisation, diffusion time as read-out of size

B1: GFP-tagged TDP-43 carboxy-terminal fragment 233-414 (C233) (domain or fragment, human, UniProt Q13148 233-414, looked up)
chain: TFADDQIAQSLCGEDLIIKGISVHISNAEPKHNSNRQLERSGRFGGNPGGFGNQGGFGNSRGGGAGLGNNQGSNMGGGMNFGAFSINPAMMAAAQAALQSSWGMMGMLASQQNQSGPSGNNQNQGNMQREPNQAFGSGNNSYSGSNSGAAIGWGSASNAGSGSGFNGGFGSSMDSKSSGWGM
notes: Cloned into pmeGFP-C1 (HindIII/BamHI); also called G-C233; GFP-C233; source: Neuro2a, transfected, in lysate; not shown: GFP (monomeric enhanced GFP, A206K), N-terminal, kept
counts per particle (CPP) relative to GFP monomers: ~4 fold
